Measured values: PMC6326545

Target: rat TRPV1 ion channel (rat) (UniProt O35433)
Sequence of UniProt O35433 (O35433 whole entry): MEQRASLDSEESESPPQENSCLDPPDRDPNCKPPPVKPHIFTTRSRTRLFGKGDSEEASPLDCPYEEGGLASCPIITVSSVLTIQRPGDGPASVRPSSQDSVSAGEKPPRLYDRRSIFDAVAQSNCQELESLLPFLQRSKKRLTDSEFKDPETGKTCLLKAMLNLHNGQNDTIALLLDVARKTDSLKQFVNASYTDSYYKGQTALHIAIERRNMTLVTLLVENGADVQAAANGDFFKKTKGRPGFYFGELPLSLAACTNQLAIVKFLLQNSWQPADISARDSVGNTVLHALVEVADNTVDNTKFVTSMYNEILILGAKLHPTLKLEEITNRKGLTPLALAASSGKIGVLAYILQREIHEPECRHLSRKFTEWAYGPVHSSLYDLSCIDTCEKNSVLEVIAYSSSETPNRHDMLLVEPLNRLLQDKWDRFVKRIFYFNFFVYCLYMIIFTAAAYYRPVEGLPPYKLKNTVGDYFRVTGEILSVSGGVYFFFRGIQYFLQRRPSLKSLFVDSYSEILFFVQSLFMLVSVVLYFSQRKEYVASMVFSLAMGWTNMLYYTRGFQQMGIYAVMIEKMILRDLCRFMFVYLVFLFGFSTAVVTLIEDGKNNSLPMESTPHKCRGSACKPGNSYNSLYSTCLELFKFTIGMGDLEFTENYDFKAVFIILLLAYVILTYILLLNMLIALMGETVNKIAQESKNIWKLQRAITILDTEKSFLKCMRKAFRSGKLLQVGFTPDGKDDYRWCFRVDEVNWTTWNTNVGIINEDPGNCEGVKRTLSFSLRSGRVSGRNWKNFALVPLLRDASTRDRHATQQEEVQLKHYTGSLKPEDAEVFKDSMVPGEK

Substance	EC50 of TRPV1 activation (two-electrode voltage clamp, oocytes), fold over wild-type DkTx (fold over wild-type DkTx)
DkTx E7A (natural protein)	11
DkTx V8A (natural protein)	16
